# Laboratory results from patent US20240018252A1.
# Residue numbers refer to the chain shown, from its start. Names and notes keep the numbering of the source. Values joined by “and” are separate entries in the source; they are usually repeats but may differ in a detail not shown here. Equal entries are not always repeated.
# B1: A02_Rd4_6nM_C16/h2B4 anti-BCMA/CD3 bispecific (bispecific antibody, V domains shown)
# VH 1: EVQLLESGGGLVQPGGSLRLSCAASGFTFSSYAMNWVRQAPGKGLEWVSAISDFGGSTYYADSVKGRFTISRDNSKNTLYLQMNSLRAEDTAVYYCARYWPMDIWGQGTLVTVSS
# VL 1: EIVLTQSPGTLSLSPGERATLSCRASQSVSDLYLAWYQQKPGQAPRLLMYDASIRATGIPDRFSGSGSGTDFTLTISRLEPEDFAVYYCQQYQTWPLTFGQGTKVEIK
# VH 2: EVQLVESGGGLVQPGGSLRLSCAASGFTFSDYYMTWVRQAPGKGLEWVAFIRNRARGYTSDHNASVKGRFTISRDNAKNSLYLQMNSLRAEDTAVYYCARDRPSYYVLDYWGQGTTVTVSS
# VL 2: DIVMTQSPDSLAVSLGERATINCTSSQSLFNVRSRKNYLAWYQQKPGQPPKLLISWASTRESGVPDRFSGSGSGTDFTLTISSLQAEDVAVYYCKQSYDLFTFGSGTKLEIK
# B2: P5C1/h2B4 anti-BCMA/CD3 bispecific (bispecific antibody, V domains shown)
# VH 1: B1 VH 1 with A33P, N35S, S52G, D53G, F54S, I104S
# VL 1: B1 VL 1 with D31S, L32T, M49I, I54S, T57P, Q93S, W95S
# VH 2: B1 VH 2
# VL 2: B1 VL 2
# B3: C01_Rd4_6nM_C12/h2B4 anti-BCMA/CD3 bispecific (bispecific antibody, V domains shown)
# VH 1: B1 VH 1 with A33P, N35S, S52G, D53G, F54S, S57W, T58S, I104S
# VL 1: B1 VL 1 with R24W, A25L, D31S, L32T, M49I, I54S, T57P, Q93S, T94E
# VH 2: B1 VH 2
# VL 2: B1 VL 2
# B4: COMBO_Rd4_0.6nM_C22/h2B4 anti-BCMA/CD3 bispecific (bispecific antibody, V domains shown)
# VH 1: B1 VH 1 with F54S, T58R, Y59W, A97T
# VL 1: B1 VL 1 with Q27V, S28R, D31S, L32T, Q93M, T94K
# VH 2: B1 VH 2
# VL 2: B1 VL 2
# B5: Combo_Rd4_0.6nM_C29/h2B4 anti-BCMA/CD3 bispecific (bispecific antibody, V domains shown)
# VH 1: B1 VH 1 with A33P, N35S, S52G, D53G, F54S, T58L, Y59P
# VL 1: B1 VL 1 with D31S, L32S, T94S
# VH 2: B1 VH 2
# VL 2: B1 VL 2
# B6: A02_Rd4_6nM_C01/h2B4 anti-BCMA/CD3 bispecific (bispecific antibody, V domains shown)
# VH 1: B1 VH 1 with S52T, D53A, F54S, D103S, I104L
# VL 1: B1 VL 1 with D31A, L32Y, Q93E, T94R
# VH 2: B1 VH 2
# VL 2: B1 VL 2
# B7: A02_Rd4_6nM_C01 N297Q/K222R Aclys vc0101 (antibody, V domains shown)
# VH: B1 VH 1 with S52T, D53A, F54S, D103S, I104L
# VL: B1 VL 1 with D31A, L32Y, Q93E, T94R
# modifications: N297Q and K222R (EU) in the human IgG1 constant region; AcLys-Val-Cit-PABC-Aur0101 joined by transglutaminase to the glutamine at 297
# B8: A02_Rd4_6nM_C16 N297Q/K222R Aclys vc0101 (antibody, V domains shown)
# VH: B1 VH 1
# VL: B1 VL 1
# modifications: N297Q and K222R (EU) in the human IgG1 constant region; AcLys-Val-Cit-PABC-Aur0101 joined by transglutaminase to the glutamine at 297
# B9: Combo_Rd4_0.6nM_C29 LCQ05/K222R Aclys vc0101 (antibody, human IgG1, part only)
# heavy: B1 VH 1 with A33P, N35S, S52G, D53G, F54S, T58L, Y59P
# light: B1 VL 1 with D31S, L32S, T94S
# chain: GGLLQGPP
# modifications: LCQ05 tag; Aclys vc0101 drug conjugate
# B10: Combo_Rd4_0.6nM_C29 N297Q/K222R Aclys vc0101 (antibody, V domains shown)
# VH: B1 VH 1 with A33P, N35S, S52G, D53G, F54S, T58L, Y59P
# VL: B1 VL 1 with D31S, L32S, T94S
# modifications: N297Q and K222R (EU) in the human IgG1 constant region; AcLys-Val-Cit-PABC-Aur0101 joined by transglutaminase to the glutamine at 297
# B11: Combo_Rd4_0.6nM_C29 LCQ05/N297Q/K222R Aclys vc0101 (antibody, human IgG1, part only)
# heavy: B1 VH 1 with A33P, N35S, S52G, D53G, F54S, T58L, Y59P
# light: B1 VL 1 with D31S, L32S, T94S
# chain: GGLLQGPP
# modifications: LCQ05 tag; Aclys vc0101 drug conjugate
# B12: Combo_Rd4_0.6nM_C29 H7c/N297A/K222R AmPEG6 Aur0131 (antibody, V domains shown)
# VH: B1 VH 1 with A33P, N35S, S52G, D53G, F54S, T58L, Y59P
# VL: B1 VL 1 with D31S, L32S, T94S
# modifications: H7c tag LLQG (SEQ ID NO: 454), N297A and K222R (EU) in the human IgG1 heavy chain constant region; amino-PEG6-C2-Aur0131 joined by transglutaminase
# B13: Combo_Rd4_0.6nM_C29 H7c/N297A/K222R AmPEG6 Aur3377 (antibody, V domains shown)
# VH: B1 VH 1 with A33P, N35S, S52G, D53G, F54S, T58L, Y59P
# VL: B1 VL 1 with D31S, L32S, T94S
# modifications: H7c tag LLQG (SEQ ID NO: 454), N297A and K222R (EU) in the human IgG1 heavy chain constant region; amino-PEG6-C2-Aur3377 joined by transglutaminase
# B14: A02_Rd4_0.6nM_C06 (antibody, V domains shown)
# VH: B1 VH 1 with F54S, T58A, Y59W, D103S, I104L
# VL: B1 VL 1 with D31V, T94R
# B15: A02_Rd4_6nM_C19 (antibody, V domains shown)
# VH: B1 VH 1 with F54S, T58R, Y59W, D103S, I104D
# VL: B1 VL 1 with D31V, Q93L, T94A
# B16: A02_Rd4_0.6nM_C18 (antibody, V domains shown)
# VH: B1 VH 1 with I51V, S52L, F54S, D103S, I104L
# VL: B1 VL 1 with D31E, Q93F, T94G
# B17: A02_Rd4_6nM_C04 (antibody, V domains shown)
# VH: B1 VH 1 with S52M, D53S, F54S, S57P, T58L, D103A, I104L
# VL: B1 VL 1 with D31A, T94V
# B18: A02_Rd4_6nM_C08 (antibody, V domains shown)
# VH: B1 VH 1 with S52L, F54S, D103S, I104P
# VL: B1 VL 1 with D31F, Q93G, T94S
# Molecular target: human BCMA (B-Cell Maturation Antigen) on myeloma cells (human) (UniProt Q02223)
# Sequence (Q02223 whole entry): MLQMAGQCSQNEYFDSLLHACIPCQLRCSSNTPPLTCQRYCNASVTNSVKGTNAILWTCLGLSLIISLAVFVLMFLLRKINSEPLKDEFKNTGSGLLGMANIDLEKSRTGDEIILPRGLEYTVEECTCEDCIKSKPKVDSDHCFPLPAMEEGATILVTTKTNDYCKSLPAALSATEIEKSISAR
# Test: cell-based or functional assay
Binder,"EC50 (nM), killing of primary myeloma cells in bone marrow mononuclear cells of patient MM00146 (flow cytometry, day 5) [nM]","EC50, T-cell mediated cytotoxicity (LDH release, 20 h) on KMS12BM (BCMA+) cells [nM]","EC50, T-cell mediated cytotoxicity (LDH release, 20 h) on KMS12PE (BCMA+++) cells [nM]","EC50, T-cell mediated cytotoxicity (LDH release, 20 h) on MOLP8 (MOLP8+) cells [nM]","EC50 (nM), killing of primary myeloma cells, patient MM00146, E:T 1:1 [nM]","EC50 (nM), killing of primary myeloma cells, patient MM00147, E:T 2:1 [nM]","EC50 (nM), killing of primary myeloma cells, patient MM00151, E:T 3:1 [nM]","EC50 (nM), killing of primary myeloma cells, patient MM00152, E:T 1:2 [nM]"
B1,0.029,0.052,0.186,0.315,,,,
B2,,4.12,0.581,,,,,
B3,,0.415,0.189,0.85,,,,
B4,,0.049,0.115,0.065,,,,
B5,,0.049,0.175,0.201,0.035,0.031,0.02,0.289
B6,,0.057,,0.06,,,,

# Molecular target: human BCMA on BCMA-expressing tumor cells (human) (UniProt Q02223)
# Sequence (Q02223 whole entry): as above
# Test: cell-based or functional assay
Binder,"EC50, cell viability (CellTiter-Glo, 96 h), KMS12BM LUCGFP (+)","EC50, cell viability (CellTiter-Glo, 96 h), L363 LUCGFP (+)","EC50, cell viability (CellTiter-Glo, 96 h), MM1.S LUCGFP (BCMA++)"
B7,18.7 nM and 2.8 µg/mL,2.53 nM and 0.38 µg/mL,0.26 nM and 0.04 µg/mL
B8,38.7 nM and 5.81 µg/mL,9.68 nM and 1.45 µg/mL,0.8 nM and 0.12 µg/mL
B9,10.9 nM and 1.64 µg/mL,1.67 nM and 0.25 µg/mL,0.13 nM and 0.02 µg/mL
B10,0.99 nM and 0.15 µg/mL,0.66 nM and 0.1 µg/mL,0.11 nM and 0.02 µg/mL
B11,1.19 nM and 0.18 µg/mL,1.05 nM and 0.16 µg/mL,0.34 nM and 0.05 µg/mL
B12,0.85 nM and 0.13 µg/mL,0.81 nM and 0.12 µg/mL,0.23 nM and 0.03 µg/mL
B13,5.01 nM and 0.75 µg/mL,1.36 nM and 0.2 µg/mL,0.3 nM and 0.05 µg/mL

# Molecular target: cynomolgus BCMA (cynomolgus (given as cyBCMA, Cyno))
# Sequence (chain, as listed by the source): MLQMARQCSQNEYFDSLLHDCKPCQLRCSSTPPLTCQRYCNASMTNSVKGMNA
# Test: SPR, IgG immobilized, cyno BCMA analyte, 37 C
Binder,Kd [nM],koff [s⁻¹],kon [M⁻¹ s⁻¹]
B14,0.058,0.000105,1.81e+06
B15,0.26,0.000661,2.54e+06
B16,0.197,0.000639,3.24e+06
B17,0.381,0.000831,2.18e+06
B18,5.07,0.0113,2.23e+06
